Data on two molecules can be found in patent US20250295799A1, “ANTIBODY-DRUG CONJUGATES TARGETING GLYPICAN-3 AND METHODS OF USE” (Zymeworks BC Inc., priority 2022, published 2025).

The test addresses Insulin (Sigma-Aldrich, 19278) (Homo sapiens (Human)) (UniProt P01308). The experiment in a line: NS-ELISA, plate coated with insulin, antibody at 100 nM.

Sequence of Insulin (Sigma-Aldrich, 19278) (Homo sapiens (Human)) (P01308 25-54 limits assumed, chain 1 of 2): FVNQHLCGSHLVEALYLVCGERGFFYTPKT
Sequence of Insulin (Sigma-Aldrich, 19278) (Homo sapiens (Human)) (P01308 90-110 limits assumed, chain 2 of 2): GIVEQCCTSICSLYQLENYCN

B1: v37575 (codrituzumab) (antibody, human IgG1, kappa, V domains shown)
VH: QVQLVQSGAEVKKPGASVKVSCKASGYTFTDYEMHWVRQAPGQGLEWMGALDPKTGDTAYSQKFKGRVTLTADKSTSTAYMELSSLTSEDTAVYYCTRFYSYTYWGQGTLVTVSS
VL: DVVMTQSPLSLPVTPGEPASISCRSSQSLVHSNRNTYLHWYLQKPGQSPQLLIYKVSNRFSGVPDRFSGSGSGTDFTLKISRVEAEDVGVYYCSQNTHVPPTFGQGTKLEIKR
For the molecule B1, the NS-ELISA binding score (ratio to buffer well) was 0.83.

B2: v36180 (M3-H1L1) (antibody, human IgG1, kappa, V domains shown)
VH: EVQLVQSGAEVKKPGSSVKVSCKASGYTFTDYEMHWVRQAPGQGLEWIGAIDPETGDTAYNQKFKGRATLTADKSTSTAYMELSSLRSEDTAVYYCTRYFSFAYWGQGTLVTVSS
VL: DVQMTQSPSSVSASVGDRVTITCRSSQSLRHSNGNTYLQWYQQKPGKAPKLLIYKVSNRFSGVPSRFSGSGSGTDFTLTISSLQPEDFATYFCYQSKHVPYTFGQGTKVEIKR
Take B2: the NS-ELISA binding score (ratio to buffer well) is 1.78.
